Laboratory results taken from paper PMC9364715.

Target: Ad5 hexon with DogTag inserted at HVR5, on Ad-DogTag virions (human adenovirus 5 (Ad5)) (UniProt P04133)
Test: SDS-PAGE gel shift

**Q.** With “DogCatcher fused to SARS-CoV-2 spike receptor-binding domain (DogCatcher-RBD) (from UniProt P0DTC2 319-532) (designed binder)” as the substance, how does the percent of hexon covalently coupled (% of hexon monomers) read?
**A.** Its percent of hexon covalently coupled (% of hexon monomers) is 57.
